Source: a protein production outcome set (Wang et al. 2014)

Assay: label from the status in PepcDB records

| Sequence | protein production |
| --- | --- |
| MGHHHHHHSHMIESGIWSRMSEMIRSSGHSHHCSPQEYRFLPPVGDDDLPGDLQSLSWLTAVDVPRLQQMANGRIDLGSSGVTHPHPGALAGTADLHVGAAPRPLLRRSQTAVVPRGVLGLSPIGNHRASAEQMNQFPAGGQASSGLQEMPQLYSPATQIPFPLPLGSQQCPPAGLYGSPFSARPSYPQAHGAMHASQEPHPKHYPKPIYSYSCLIAMALKNSKTGSLPVSEIYSFMKEHFPYFKTAPDGWKNSVRHNLSLNKCFEKVETKSSGSSRKGCLWALNLARIDKMEEEMHKWKRKDLAAIHRSMANPEELDKLISDRPESCRRPGKRGEPKAPMLTHATTVAMAHSCLAISQLPPKPLMTLSLQSVPLHHQLQPQAHLAPDSPAPAQTPPLHALPSLSPGPLPQPAMGRVPGDFLNINSDMNTEVDALDPSIMDFALQGNLWEEMKEDSFSLDTLEAFGDSPLGCDLGAPSLTPVSGNSDQSFPDVQVTGLYAAYSTAADGVAPSAANSAQYLGTPGNKPIALL | failed |
| MGHHHHHHSHMKPSGEDQAALAAGPWEECFQAAVQLALRAGQIIRKALTEEKRVSTKTSAADLVTETDHLVEDLIISELRERFPSHRFIAEEAAASGAKCVLTHSPTWIIDPIDGTCNFVHRFPTVAVSIGFAVRQELEFGVIYHCTEERLYTGRRGRGAFCNGQRLRVSGETDLSKALVLTEIGPKRDPATLKLFLSNMERLLHAKAHGVRVIGSSTLALCHLASGAADAYYQFGLHCWDLAAATVIIREAGGIVIDTSGGPLDLMACRVVAASTREMAMLIAQALQTINYGRDDEK | failed |
| MGHHHHHHSHMQDRRSVCIFLPNDESLNIIINVKILCHQLLVQVCDLLRLKDCHLFGLSVIQNNEHVYME | not failed |
| MGHHHHHHSHMSFVECPYHSPAERLVAEADEGGPSAITGMGLCFRCLLFSFSGRSGVEGGRVDLNVFGSLGLQPWIGSSRCWGGPCSSALRCGWFSSWPPPSKSAIPIGGGSRGAGRVSRWPPPHWLEAWRVSPRPL | failed |
| MGHHHHHHSHMSIPSSQYGFVFNKQSGLKLRNDLPVHKPKAGQLLLKVDAVGLCHSDLHVIYEGLDCGDNYVMGHEIAGTVAAVGDDVINYKVGDRVACVGPNGCGGCKYCRGAIDNVCKNAFGDWFGLGYDGGYQQYLLVTRPRNLSRIPDNVSADVAAASTDAVLTPYHAIKMAQVSPTSNILLIGAGGLGGNAIQVAKAFGAKVTVLDKKKEARDQAKKLGADAVYETLPESISPGSFSACFDFVSVQATFDVCQKYVEPKGVIMPVGLGAPNLSFNLGDLALREIRILGSFWGTTNDLDDVLKLVSEGKVKPVVRSAKLKELPEYIEKLRNNAYEGRVVFNP | not failed |
| MGHHHHHHSHMTDCEFGYIYRLAQDYLQCVLQIPQPGSGPSKTSRVLQNVAFSVQKEVEKNLKSCLDNVNVVSVDTARTLFNQVMEKEFEDGIINWGRIVTIFAFEGILIKKLLRQQIAPDVDTYKEISYFVAEFIMNNTGEWIRQNGGWENGFVKKFEPK | not failed |
| MGHHHHHHSHMVLSQNTKRESGRKVQSGNINAAKTIADIIRTCLGPKSMMKMLLDPMGGIVMTNDGNAILREIQVQHPAAKSMIEISRTQDEEVGDGTTSVIILAGEMLSVAEHFLEQQMHPTVVISAYRKALDDMISTLKKISIPVDISDSDMMLNIINSSITTKAISRWSSLACNIALDAVKMVQFEENGRKEIDIKKYARVEKIPGGIIEDSCVLRGVMINKDVTHPRMRRYIKNPRIVLLDSSLEYKKGESQTDIEITREEDFTRILQMEEEYIQQLCEDIIQLKPDVVITEKGISDLAQHYLMRANITAIRRVRKTDNNRIARACGARIVSRPEELREDDVGTGAGLLEIKKIGDEYFTFITDCKDPKACTILLRGASKEILSEVERNLQDAMQVCRNVLLDPQLVPGGGASEMAVAHALTEKSKAMTGVEQWPYRAVAQALEVIPRTLIQNCGASTIRLLTSLRAKHTQENCETWGVNGETGTLVDMKELGIWEPLAVKLQTYKTAVETAVLLLRIDDIVSGHKKKGDDQSRQGGAPDAGQE | failed |
| MGHHHHHHSHMVSDIRRFLSAFHEPQVGLIQAAQQLLCDEQAPQRQRLLADLLHNVSQNIAAETRAEDPPWFEGLESRFQSKSGYLRYSCESRIRSYLREVSSYPSTVGAEAQEEFLRVLGSMCQRLRSMQYNGSYFDRGAKGGSRLCTPEGWFSCQGPFDMDSCLSRHSINPYSNRESRILFSTWNLDHIIEKKRTIIPTLVEAIKEQDGREVDWEYFYGLLFTSENLKLVHIVCHKKTTHKLNCDPSRIYKPQTRLKRKQPVRKRQ | failed |
| MGHHHHHHSHPQSAAKPGLHFIDQHRAALIARVTNVEWLLDALYGKVLTDEQYQAVRAEPTNPSKMRKLFSFTPAWNWTCKDLLLQALRESQSYLVEDLERS | failed |
| MGHHHHHHSHTGKTTFSATIHALEGGVVADCDVDAPNLHILLKPQILKAEDFIASKKARIMPEKCSSCGLCYDLCRFGAVVAEDGYYVDEKKCEGCAFCFNVCPERAIEMENVKTGDLYVSKTEWGYFVHARLKPGEENTGRLVTEVKNRAKEIAEESNAEFLIVDSAPGVGCPVMASLTGVDAAIIVTEPTVSGLSDMLRILELCEHFRIRPFVVVNKFDLNVNIASEIESYCSENGVEFAGRVPFDKAIPEQIANLNFPFSGKAADKMVEIWKKLRE | not failed |
| MGHILDSRRCALSVTQQQVLDSLARIKSPRGVALPNANVLSAISASDGKVFFSINVDAAEARAWEAVRAEAEAAVRAIPGATTVMVALTAERKPGSAPPPPPTPSRGTPGVQPVHAHKPPQGGGSPMARQSEIPGVAAVIAVASGKGGVGKSTTALNLALGLRDLGLKVGLLDADIYGPSVPRLTGLRDKPELDGERKMIPLRRFGLAIMSIGFLVEEETAMIWRGPMVMSAVTQMLRDVAWGSLDVLVVDMPPGTGDAQLTLAQNVPLKGAVIVSTPQDLSLIDARRGLAMFRKVNVPVLGIVENMSYFQCPHCGTKSDIFGHGGARHEAEKLGVPFLGEIPLHMAIRATSDAGNPVVDSEPDGPHAAIYRAIAGQVRDQLKGAIAAA | failed |
| MGHNGIINYEVDVQDNKIEDLKILKHSETSGIFNQVIDKLKQNIITEQSFNVDTISGATVMTQALLKSADKAVTDAGVDVQLEHHHHHH | not failed |
| MGHSGREERIKDIFKELTSKELTPGLLLTLQKLAQKPNTNLEQFIASCKALTKLSSNNPIIFNELLELLKNKSEEDSTGPKKIAPSINKRKKFKIQLDLDDNEDELDSPVQKKPAPTRTLFKRIDKLKAKQLRQYSPTVKDPSPNSEQQTQNGHAETKDYEPTRSEVVEEDREWYDNDDDYGNLVPEPLSELPEEAKLLPVIRNIDNDDALRNTVQLYPIPLKQRMEWIPPFLSKFALENKVPTSIIIGSISETSSQVSALSMVNPFRNPDSEFSANAKRGSKLVALRRINMEHIQQSRDNTTVLNTAMGEVLGLENNNKAKDKSNQKICDDTALFTPSKDDIKHTKEQLPVFRCRSQLLSLIRENQVVVIIGETGSGKTTQLAQYLYEEGYANDRGKSIVVTQPRRVAAISVAKRVAMEMQVPLGKEVGYSIRFEDVTDSECTKLKFVTDGILLRETLLDDTLDKYSCVIIDEAHERSLNTDILLGFFKILLARRRDLKLIITSATMNAKKFSAFFGNAPQFTIPGRTFPVQTIYTSNPVQDYVEAAVSQAVKIHLANDCSSGDILIFMTGQEDIETTFDTLQEKFLQVYSKKFGTANFEEINDIEILPIYSALPADLQFKIFQDLHGTKRKIIIATNIAETSLTIKGIRYVIDCGYSKLKVYNPKIGLDSLVITPISKANADQRSGRAGRTAPGTAYRLYTEDTFKEDMYLQTIPEIQRTNLSNTLLLLKSLDVTDELSKFPFIDKPPLQTFLSSLYELWFIGAIDTSGQLTPLGLQMAKFPLQPSLSKILLIAVRNGCSDEMLTIVSMLSVPQVFYRPKERQKEADIARNKFFIAKSDHLTLLNVFEQWRANNFSSHWCNKHFVQYKSLVRARDIRDQLLTILKSQKIPVISSGKDWDIIKKCICSGFAHQAAKITGLRNYVHLKTGVSVQLHPTSALHGLGDLPPYVVYHELLMTSKEYICCVTSVDPFWLMEYGGLLYDIKRIKNDQEATTTGLFGEHYEHTLDKVEDDIDINIRRCKDMRDSVIQELKMTDNSNKEDKKQKTKKQNILNGKENSMKPFKRRKPFF | failed |
| MGIDPVTHRATHKTKRVEATANTFKAVATEWLKEVHQKAVVEEHYNRNVRRLEQHAFPKLGRRPISEIEPSDILEPLRDIAKTGRRETAKRVKTLIGQVFRYTVSTGRAQRDMTADIRGILPALEHHHHHH | failed |
| MGIFGWRTASLLKKAWQLYQQQHWSKAQQCARQVIEQTPQPEAYYLLGLIAEQLARPLEARTAYEQAIALDPWHAPSHYRLAVVLHALLQQPAAAVPHYQRALEVKPDWVEAHSNLGNAYLDLGDTEGAIACYQKALSLNPDLPTTLYNLGLCLHAQGKLTEATACYEQSLYLEPGQADVHNNLGSAYLELKNYTAATVHFQAALGANPELLVAHYNLGYALHLQGNLAAARDRYQEVLLRDNKHLRTLLQLGQICLAEEDLTGAIGYYQRCLSLDPLNSAAQAGLATALLESGDPQAALPYLRQAVALNPEAEDVRLKFALVLLMLEQFREGWQEYEWRWQQPTGGLRNYPQPRWQGQSLKGKTLFVYSEQGFRDCIQFVRLLPLMAKHAQRIIFEAYPPLVRLCQTLPGIEVMSTEETPPPFDYHTPLLSLPRYLGIDQDHFPKFKPYFPLPTRPPHPLFKVSKPRVGLVWASHSQTRTTVQRSCPLEYFLPLLQEFDVQWYSLQKERSPTEAEQLRQVGVIDCQPYMGDFLDTALLIQQLDAVVTIDTAVAHLAGALGKPLWILLPFVADWRWFWRRSRSPWYPSAELIRQPQRGDWPGAIAQLRSALQAHYRTRCNGIPN | failed |
| MGIIERIKEIEAEMARTQKNKATEYHLGQLKAKIAKLRTQLLEPPKGASGGGEGFEVTKYGHGRVALIGFPSVGKSTLLTMLTGTHSEAASYEFTTLTCIPGVIHYNDTKIQLLDLPGIIEGASEGKGRGRQVIAVAKSSDLVLMVLDASKSEGHRQILTKELEAVGLRLNKTPPQIYFKKKKTGGISFNTTAPLTHIDEKLCYQILHEYKIHNAEVLFRENATVDDFIDVIEGNRKYIKCVYVYNKIDVVGIDDVDRLSRQPNSIVISCNLKLNLDRLLARMWDEMGLVRVYSKPQGQQPDFDEPFVLSSDRGGCTVEDFCNHVHRTLVKDMKYALVWGTSTRHNPQNCGLSQHLEDEDVVQIVKKKERDEGGRGRFKSHSNAPARIADREKKAPLKQ | failed |
| MGILDEIMNQEHFDIKTSLDYINEYEKLLPFDSEIHTARAVTYFFGEEYKLAEEHIRKALKFRPNNYDNNFYLANILIAMGEYPDAIKSAVLSVTFLKHFAKIQGYDYINDKLFYYNEQVKTLIEYCIENIKDTNVLEDLKRFFGFIELSIAKFPVCFYGDKWNILVGEYLNKDLNSEYNDYICFYSDTYNNMLSDFQKKLYTVINNSEISSICPIESFKSMTAKEFSLDNGKYIIPIATTEYNQVIDFKIKNTNFKSQQVDPPGFFKYYRVNNGISLNSDKDVIIGKPIKLGFKEKNKKLVFTIFIDALSQKYLLETKYKSMPYTKAFFDKGIIFENCYSAGEWTYPSLTSVVTGLYTTNHHFLHSSAGYKYPDDIDLFSEIMKKNEYFTANISGTYALAPYSSGFRGFDRTVFKNSLGFSDSVIINDAIKHIESFKETNQFVFMSLSDVHKILDDIENYSVNYDIVNQTSLDIETSLSKRSSFVSAWQKYDEEAIKKYDVALRELDRQLKGIYDYILQNYSEEEYLISIFSDHGASFLGKDDFLLKSNITNSVLMVRGSGSASNGNTEYISNMDLIPIILKLANIEHDLSKYDCVLPKTLGGKGREFTYSESIYPGQTYKAMVNNDKYCYILETKGITDIDGTINFDEYSDSVFDKKEDKEVKDNDILEYYREIVYNHIKRNIKY | failed |
| MGILDRFEKGLENVVNGAFAKAFRSQVEPVELAGALRREADNKAAVVSRGRTLTANHYSIELSPTDFDRLSGLENELRSDLRQVIGDHAVEQAYSFVGPVSVEFVEAEDLDTGMYRVVSSTQRPDGSPAAQPANRGGYDPVSRSHNIVGEGQANSGSRPVPPRRTPEPAPARPAATSRPASAPVRQAAPARSRTISASVTIHGQDYELHQGTNVFGRSSSSSDYVIDDPGVSRRHFEITVERDHAVANDLGSTNGTLLRGRKLTSANLSDGDVLMAGDAEVRYHENEQDAQ | failed |
